The target in the test is P. luminescens TcdA1 (TcA) (P. luminescens, UniProt Q9RN43 1-2516). As to the kind of experiment: cryo-EM structure.

B1: TcdB2 (TcB), as the TcB part of the TcdB2-TccC3 fusion protein (natural protein)
chain: MQNSQDFSITELSLPKGGGAITGMGEALTPTGPDGMAALSLPLPISAGRGYAPAFTLNYNSGAGNSPFGLGWDCNVMTIRRRTHFGVPHYDETDTFLGPEGEVLVVADQPRDESTLQGINLGATFTVTGYRSRLESHFSRLEYWQPKTTGKTDFWLIYSPDGQVHLLGKSPQARISNPSQTTQTAQWLLEASVSSRGEQIYYQYRAEDDTGCEADEITHHLQATAQRYLHIVYYGNRTASETLPGLDGSAPSQADWLFYLVFDYGERSNNLKTPPAFSTTGSWLCRQDRFSRYEYGFEIRTRRLCRQVLMYHHLQALDSKITEHNGPTLVSRLILNYDESAIASTLVFVRRVGHEQDGNVVTLPPLELAYQDFSPRHHAHWQPMDVLANFNAIQRWQLVDLKGEGLPGLLYQDKGAWWYRSAQRLGEIGSDAVTWEKMQPLSVIPSLQSNASLVDINGDGQLDWVITGPGLRGYHSQRPDGSWTRFTPLNALPVEYTHPRAQLADLMGAGLSDLVLIGPKSVRLYANTRDGFAKGKDVVQSGDITLPVPGADPRKLVAFSDVLGSGQAHLVEVSATKVTCWPNLGRGRFGQPITLPGFSQPATEFNPAQVYLADLDGSGPTDLIYVHTNRLDIFLNKSGNGFAEPVTLRFPEGLRFDHTCQLQMADVQGLGVASLILSVPHMSPHHWRCDLTNMKPWLLNEMNNNMGVHHTLRYRSSSQFWLDEKAAALTTGQTPVCYLPFPIHTLWQTETEDEISGNKLVTTLRYARGAWDGREREFRGFGYVEQTDSHQLAQGNAPERTPPALTKNWYATGLPVIDNALSTEYWRDDQAFAGFSPRFTTWQDNKDVPLTPEDDNSRYWFNRALKGQLLRSELYGLDDSTNKHVPYTVTEFRSQVRRLQHTDSRYPVLWSSVVESRNYHYERIASDPQCSQNITLSSDRFGQPLKQLSVQYPRRQQPAINLYPDTLPDKLLANSYDDQQRQLRLTYQQSSWHHLTNNTVRVLGLPDSTRSDIFTYGAENVPAGGLNLELLSDKNSLIADDKPREYLGQQKTAYTDGQNTTPLQTPTRQALIAFTETTVFNQSTLSAFNGSIPSDKLSTTLEQAGYQQTNYLFPRTGEDKVWVAHHGYTDYGTAAQFWRPQKQSNTQLTGKITLIWDANYCVVVQTRDAAGLTTSAKYDWRFLTPVQLTDINDNQHLITLDALGRPITLRFWGTENGKMTGYSSPEKASFSPPSDVNAAIELKKPLPVAQCQVYAPESWMPVLSQKTFNRLAEQDWQKLYNARIITEDGRICTLAYRRWVQSQKAIPQLISLLNNGPRLPPHSLTLTTDRYDHDPEQQIRQQVVFSDGFGRLLQAAARHEAGMARQRNEDGSLIINVQHTENRWAVTGRTEYDNKGQPIRTYQPYFLNDWRYVSNDSARQEKEAYADTHVYDPIGREIKVITAKGWFRRTLFTPWFTVNEDENDTAAEVKKVKM
On to B1, for which the binding result is reported as “binds”.
